{"source": "patent US20220315908A1", "about": "“NOVEL GARDNERELLA ENDOLYSINS AND USES THEREOF” (priority 2019, published 2022)", "molecules": {"B1": {"name": "H6B6: natural Gardnerella prophage endolysin from strain 1400E, truncated at the C-terminus (protein)", "chain": "MSKKGIDVSVWQGDIDFNAVKASGVEFVIIRAGYGIGCKDKWFEQNYRKAKTCGLDVGAYWYSYANSGFEAAEEAQSCVNMLSGKSFEYPVYFDLEEKSQLNRGRAFCDSLITSFCSKLESCGYYAGFYTSLSTANNLVSAHVRNRYALWIAQWNTHCDYQGSYGLWQYSSSGSVPGVAGRVDMDYAYKNYPSIIKNAGLNGCKNGGSNQAARTSSIDDVAREVINGAWGNGNERKQRLTQAGYDYASVAK", "modifications": "EL6_strain_1400E_frameshift", "notes": "natural Gardnerella prophage endolysin from strain 1400E, truncated at the C-terminus"}}, "key": {"[1]": {"system": "G. vaginalis sensu stricto strain Gv_9", "experiment": "Quantitative reduction in viable CFU assay in bacterial suspension", "assay_type": "cell-based, Gardnerella vaginalis sensu stricto", "details": "for median surviving cells after incubation with imidazole: 5×10^7 CFU/ml start, 5 hours 37° C. anaerobic", "description": "The lysis activity on the four main species of Gardnerella of 91 constructs (natural and domain-swapped endolysins) was quantitatively assessed using the method described in Reference Example 2. […]\n(§1) The results are shown in FIGS. 8A to 8D together with Tables 5A to 5C. In FIGS. 8A to 8D, the logarithmic Y axis depicts the count of surviving cells. The dotted line indicates the limit of detection (LOD) given by plating of 2 ul of the reaction mix (500 CFU/ml). Each combination of the natural 10 H-domains and the natural 9 B-regions was assessed, including the natural endolysins (H1B1, H2B2, H3B3, etc.), plus H6B6. […] The activity of each construct was measured on each of the 4 main Gardnerella species G. vaginalis sensu stricto, G. leopoldii, G. piotii, and G. swidsinkii. All conditions have been measured in triplicate. The survival after 5 hours incubation at pH 5.0 under anaerobic conditions with endolysins vs. buffer was measured by quantitative plating. The values indicate the log 10 of the ratio of surviving CFU for treated vs. untreated cells. The average of the triplicate measurements is used. In tables 5A and 5B, high negative log 10 values, e.g. −6.7, −5.5, −4.8 etc. are associated with high enzymatic activity, while log 10 values closer to zero or even positive log 10 values are associated with low or no enzymatic activity. […] Inversely, a reduction value of −3.7 means a 10^3.7-fold (=5012-fold) reduction of viable CFU in treated sample vs. untreated control.\n(§2) Gardnerella cells were recovered from cryo stock by plating on Chocolate Agar plates (Beckton Dickinson) and incubating for 48 h at 37° C. under anaerobic conditions. For Lactobacilli, BD Schaedler/5% sheep blood agar plates were used instead. Colonies were scraped from the plate, resuspended in Hardy Broth or NYC-III-HS-5.0 at the pH as indicated, and the suspension adjusted to OD (610 or 620 nm as indicated) 0.1. It has to be noted that two Tecan Microplate readers, having respectively a 610 nm or 620 nm filter, have been used interchangeably in the experiments. Although it doesn't make any difference for the experiments, the exact wavelength used is specified in each example. If not stated otherwise, 90 μl cell suspension was mixed with 10 μl endolysin solution, for the different species/endolysin combinations, in 384-well plates. OD(610-620 nm as indicated) was measured at the beginning of the reaction and at the end, either as two measurement points or as a continuous kinetic in a Tecan F200 Microplate reader. The reactions were incubated for 5 hours (or otherwise the time indicated) at 37° C. under anaerobic, micro-aerophilic or aerobic conditions as indicated. Anaerobic conditions intend that oxygen was fully depleted from the container in which the bacteria are incubated (Sigma-Aldrich anaerobic jar or sealable lunch box) with an anaerobic sachet, and the lack of oxygen was confirmed with an anaerobic indicator inside the container. Where micro-aerophilic conditions are indicated, the candle-in-a-jar method was used (tea candle lit in an appropriate sealable container, which reduces oxygen levels until the flame dies out). Then each well was diluted in 5 steps (10^−1 to 10^−5) using 96-U-well bottom plates, and 2 μl of each dilution of each reaction mix are plated on BD Chocolate agar plates or BD Schaedler/5% sheep blood agar plates for Gardnerella and Lactobacilli, respectively, for detecting and quantifying surviving CFU. Detection plates were incubated at 37° C. for 48 hours under anaerobic conditions."}, "[2]": {"system": "all tested Gardnerella strains", "experiment": "MIC and MBC microbroth dilution, stated over all tested strains", "assay_type": "cell-based", "details": "first round: […]10^7 CFU/ml, 48 h anaerobic (FIG. 14)", "description": "One of the main deficiencies in the treatment of BV is the high rate of recurrence in many women, which leads to repeated administration of antibiotics and concomitant destabilization of the microbiome and other side effects. The minimal inhibitory concentration (MIC) and minimal bactericidal concentration (MBC) on Gardnerella cells of the strains also used for the endolysin activity assays were then measured using the method described in Reference Example 6 and 7. […] Essentially, Gardnerella suspensions at 2.5×10^7 CFU/ml were incubated with the concentration of antibiotics as indicated and incubated for 48 h at 37° C. under anaerobic conditions. […] OD(610) was measured at the beginning and the end of the experiment. At the end of the experiment, 2 ul of each reaction mix was spotted on agar to determine the MBC.\nThe conditions under which MIC and MBC were measured are more rigorous than the standard.\nExample 7—Activity assays of a representative (H2B10) of domain swapped endolysins on the growth in suspension of different Gardnerella strains. […] The conditions under which MBC was measured are more rigorous than the standard. […] In general, it is known, that antibiotics only insufficiently eradicate the Gardnerella biofilm, a hallmark of BV, which is one suspected reason for the reported very high recurrence rate of BV. Despite leaving residual viable biofilm, antibiotics wipe parts of the beneficial organisms of the vaginal microbiome which then opens an ecological niche for other pathogens, e.g. fungi.\nBacteria were plated from cryo stock on BD Choc Agar plates (Gardnerella) and incubated at 37° C. for 48 h under anaerobic conditions. Colonies were scraped from the plate, resuspended in Hardy Broth or NYC-III-HS-pH 5.0, and the suspension adjusted to OD (610 or 620 nm as indicated) 0.05. It has to be noted that two Tecan Microplate readers, having respectively a 610 nm or 620 nm filter, have been used interchangeably in the experiments. Although it doesn't make any difference for the experiments, the exact wavelength used is specified in each example. Antibiotics were prepared as 20× stocks for each of the required final concentrations. […] OD (610-620 as indicated) at the start of the reaction was measured, then the plate was incubated at 37° C. for 48 h under anaerobic conditions. After that, the OD (610-620 as indicated) was measured again for MIC determination, where MIC was defined as the lowest concentration of antibiotic where the OD (610-620 as indicated) was not above the level measured at the beginning of the experiment. […] After incubation, cell growth on each spot was evaluated, and the MBC defined as the lowest concentration of antibiotics where no bacteria grew on the plate."}, "[3]": {"system": "G. leopoldii strain Gv_11", "experiment": "Quantitative reduction in viable CFU assay in bacterial suspension", "assay_type": "cell-based, Gardnerella leopoldii", "details": "5 hours, pH 5.0, anaerobic, 10 ul endolysin (0.2 mg/ml where possible) + 90 ul 5e7 CFU/ml, average of triplicate", "description": "(§3) The lysis activity on the four main species of Gardnerella of 91 constructs (natural and domain-swapped endolysins) was quantitatively assessed using the method described in Reference Example 2. Briefly, 90 ul 5e7 CFU/ml of the indicated strain were incubated for 5 hours at pH 5.0 under anaerobic conditions with 10 ul endolysin (concentration adjusted to 0.2 mg/ml where possible, see Table 4).\nas §1, §2"}, "[4]": {"system": "G. swidsinskii strain Gv_23", "experiment": "Quantitative reduction in viable CFU assay in bacterial suspension", "assay_type": "cell-based, Gardnerella swidsinskii", "details": "5 hours, pH 5.0, anaerobic, 10 ul endolysin (0.2 mg/ml where possible) + 90 ul 5e7 CFU/ml, average of triplicate", "description": "as §3, §1, §2"}, "G. piotii strain Gv_17": {"system": "G. piotii strain Gv_17", "experiment": "Quantitative reduction in viable CFU assay in bacterial suspension", "assay_type": "cell-based, Gardnerella piotii", "details": "5 hours, pH 5.0, anaerobic, 10 ul endolysin (0.2 mg/ml where possible) + 90 ul 5e7 CFU/ml, average of triplicate", "description": "as §3, §1, §2"}, "[5]": {"system": "four Gardnerella strains (Gv_9, Gv_11, Gv_17, Gv_23)", "experiment": "CFU reduction averaged across the four Gardnerella strains, with activity ranks", "assay_type": "cell-based", "description": "as §3, §1\nas §2, with “out).” for “out). Then each well was diluted in 5 steps (10^−1 to 10^−5) using 96-U-well bottom plates, and 2 μl of each dilution of each reaction mix are plated on BD Chocolate agar plates or BD Schaedler/5% sheep blood agar plates for Gardnerella and Lactobacilli, respectively, for detecting and quantifying surviving CFU. Detection plates were incubated at 37° C. for 48 hours under anaerobic conditions.”"}}, "data": [{"molecule": "c1c[nH]cn1", "note": "[imidazole]", "values": [{"measurement": "median surviving cells after incubation with imidazole", "setting": "[1]; pH 6.0", "value": "1×10^6 CFU/ml"}, {"measurement": "median surviving cells after incubation with imidazole", "setting": "[1]; pH 7.0", "value": "3×10^4 CFU/ml"}]}, {"molecule": "CCC[C@@H]1C[C@@H](C(=O)N[C@@H]([C@H]2O[C@H](SC)[C@H](O)[C@@H](O)[C@H]2O)[C@H](C)Cl)N(C)C1", "note": "[Clindamycin]", "values": [{"measurement": "MIC over all Gardnerella strains", "setting": "[2]", "value": "> 8", "unit": "µg/mL"}]}, {"molecule": "B1", "values": [{"measurement": "log 10 of the ratio of surviving CFU for treated vs. untreated cells", "setting": "[3]", "value": 0.2, "unit": "log 10"}, {"measurement": "log 10 of the ratio of surviving CFU for treated vs. untreated cells", "setting": "[4]", "value": "−0.1", "unit": "log 10"}, {"measurement": "log 10 of the ratio of surviving CFU for treated vs. untreated cells", "setting": "[1]; Gv_9, 5 hours, pH 5.0, anaerobic, 10 ul endolysin (0.2 mg/ml where possible) + 90 ul 5e7 CFU/ml, average of triplicate", "value": 0.1, "unit": "log 10"}, {"measurement": "log 10 of the ratio of surviving CFU for treated vs. untreated cells", "setting": "G. piotii strain Gv_17", "value": "−0.2", "unit": "log 10"}, {"measurement": "killing activity against Gardnerella, in words", "setting": "[5]; across the Gardnerella strains tested", "value": "complete inactivity"}, {"measurement": "average of the log 10 activities of each construct across the four Gardnerella strains", "setting": "[5]; pH 5.0, 5 hours, anaerobic", "value": 0.0, "unit": "log 10"}, {"measurement": "activity rank of all endolysins", "setting": "[5]; rank 1-91, based on the data of Table 5B", "value": 86}]}]}
